{
  "source": "paper PMC7647112",
  "about": "“The SiaABC threonine phosphorylation pathway controls biofilm formation in response to carbon availability in Pseudomonas aeruginosa” (PLoS ONE, 2020)",
  "key": {"[1]": {"target": "SiaC (Pseudomonas aeruginosa)", "assay": "SEC; SiaB and SiaC mixed in equal molar ratio, incubated at room temperature for 1 h, without ATP and MgCl2; Hiload 16/600 Superdex 200; peaks analysed by SDS-PAGE"}, "[2]": {"target": "C-terminal part of SiaA including the PP2C-like phosphatase domain (SiaA-PP2C, amino acids 386-663) (Pseudomonas aeruginosa)", "assay": "SEC; size-exclusion chromatography of SiaA-PP2C alone; elution compared with markers"}, "SiaA-PP2C [3]": {"target": "T1, SiaA-PP2C (Pseudomonas aeruginosa, UniProt Q9I6W0)", "T1 construct": "gene PA0172; C-terminal PP2C phosphatase domain, residues 386-663, His-tagged (pNIC vectors), E. coli BL21(DE3) Rosetta; ~33 kDa monomer, homodimer (66 kDa by SEC)", "assay": "pNPP phosphatase assay, absorbance […] nm", "assay_type": "biochemical", "settings": "20 mM MgCl2, 20 mM Tris-HCl pH 7.5, 150 mM NaCl, 37°C; 0.5-5 mM pNPP"}, "SiaA-PP2C [4]": {"target": "T1, SiaA-PP2C", "assay": "pNPP phosphatase assay, absorbance […] nm", "assay_type": "biochemical", "settings": "read-out: % activity remaining at 0.1 mM fumonisin B1"}},
  "data": [
    {"molecule": "SiaB (enzyme)", "values": [
      {"measurement": "stoichiometry N (SiaB:SiaC (2:2 complex))", "setting": "[1]", "result": 1}
    ]},
    {"molecule": "C-terminal part of SiaA including the PP2C-like phosphatase domain (SiaA-PP2C, amino acids 386-663) (domain or fragment)", "values": [
      {"measurement": "stoichiometry N", "setting": "[2]", "result": 2}
    ]},
    {"molecule": "O=[N+]([O-])c1ccc(OP(=O)(O)O)cc1", "note": "[para-nitrophenyl phosphate]", "values": [
      {"measurement": "pNPP phosphatase assay, absorbance 405 nm", "setting": "SiaA-PP2C [3]", "result": "phosphatase activity of SiaA-PP2C was assessed using para-nitrophenyl phosphate (pNPP)"}
    ]},
    {"molecule": "CCCC[C@@H](C)[C@@H](OC(=O)C[C@@H](CC(=O)O)C(=O)O)[C@H](C[C@@H](C)C[C@H](O)CCCC[C@@H](O)C[C@H](O)[C@H](C)N)OC(=O)C[C@@H](CC(=O)O)C(=O)O", "note": "[fumonisin B1]", "values": [
      {"measurement": "remaining activity at 100 µM", "setting": "SiaA-PP2C [4]", "result": 35.5, "unit": "%"}
    ]}
  ]
}
